Measurements published in patent US6656907B1, “Method of treating gastric ulcer by administration of epidermal growth factor” (University Technologies International Inc., priority 1995, dated 2003).

Tests used:
[1] = Weight gain in healthy rabbits given daily oral EGF; format: in vivo, New Zealand white rabbits
Protocol: EGF was tested for its potential benefits on weight gain. One group of New Zealand white rabbits (6 week old, 500-700 g) received daily oral doses of recombinant human EGF (100 μg/kg body weight) and control animals were given saline only. […] Given the linear aspect of both curves, continued feeding with EGF is likely to produce a steadily increasing. effect on weight gain.

[2] = Stability of lyophilized EGF in drinking water; format: physicochemical; settings: lyophilized EGF added to drinking water
[3] = system: intestinal brush border membrane nutrient absorption; experiment: Nutrient uptake into brush border membrane vesicles after jejunal loop treatment; format: in vivo, New Zealand White rabbits
Protocol: Subsequent experiments examined the effects of EGF and an inhibitor of the EGF receptor (tyrphostin 51) on intestinal brush border membrane nutrient absorption. Tyrphostin 51is a specific inhibitor of tyrosine kinase, which is a critical element of the EGF intracellular signalling cascade. Studies were performed in New Zealand White rabbits (700-1000 g; approximately 8 weeks of age). Two 10 cm blind jejunal loops separated by a 1 cm segment were tied off starting 5 cm distal to the ligament of Treitz. In separate experiments either EGF (60 ng/ml), EGF+tyrphostin (10 μM), or tyrphostin (10 μM) alone in 1.5 ml of saline vehicle was administered to one of the loops. The other loop received vehicle alone and served as a paired control. After one hour, the loops were removed and the mucosa scraped for preparation of brush border membrane vesicles. Nutrient (D-glucose and L-proline) uptake into brush border membrane vesicles was determined by established techniques. Luminal EGF stimulated a significant increase (p<0.001) in brush border membrane glucose (EGF 16.1±1.0 vs CONTROL 11.5±0.9 nmol/min/mg protein; n=5) and proline (EGF 3.8±0.5 vs CONTROL 2.6±0.3 nmol/min/mg protein; n=5) transport compared to controls. […] Subsequently, a further series of experiments examined the effect of tyrphostin alone on brush border glucose transport. […] Thus, EGF treatment increases nutrient absorption and promotes weight gain. Conversely, tyrphostin treatment may promote a decrease in weight gain or weight loss and therefore may be useful in the treatment of obesity. Tyrphostin treatment may also reduce the intestinal uptake of toxic or adverse substances.

Salmonella typhimurium = Salmonella typhimurium translocation across confluent CaCo2 monolayers on Transwell membranes; format: cell-based, human; settings: apical EGF 100 μM 15 min prior to infection
Protocol: (§1) Two×10^8 human pathogenic Salmonella typhimurium or E. coli were added to the apical surface of confluent human CaCo2 monolayers grown on Transwell membranes (porosity 3.0 μm). Monolayers received apical EGF (100 μM) or PBS 15 min prior to infection. Each hour post infection (0-7 h), medium under the membrane was replaced and bacterial transepithelial migration rate (CFU/h) was calculated.

RDEC-E. coli = RDEC-E. coli intestinal infection in rabbits, oral EGF; format: in vivo, New Zealand White rabbits
Protocol: Twenty-eight New Zealand White rabbits (6 wk-old) were studied in 3 groups: 1) Controls (Con, n=9), 2) Infected with 1×10^7 RDEC-E. coli (I, n=10), and 3) Infected-treated with 60 μg oral EGF daily for 10 days, starting 3 days prior to infection (I-EGF, n=9). Animals were assessed daily for weight gain, rectal passage of E. coli, and presence of diarrhea. Seven days post-infection, animals were killed and mucosa obtained from the jejunum (JEJ), ileum (ILE), and proximal colon (PROX) for quantitation of E. coli, and from the jejunum for mucosal enzyme assays.

E. coli = E. coli translocation across confluent CaCo2 monolayers on Transwell membranes; format: cell-based, human
Protocol: as §1

[4] = jejunum mucosa, 7 days after inoculation

B1: epidermal growth factor (protein, UniProt P01133 23-1207, looked up)
Pro-epidermal growth factor: PQHWSCPEGTLAGNGNSTCVGPAPFLIFSHGNSIFRIDTEGTNYEQLVVDAGVSVIMDFHYNEKRIYWVDLERQLLQRVFLNGSRQERVCNIEKNVSGMAINWINEEVIWSNQQEGIITVTDMKGNNSHILLSALKYPANVAVDPVERFIFWSSEVAGSLYRADLDGVGVKALLETSEKITAVSLDVLDKRLFWIQYNREGSNSLICSCDYDGGSVHISKHPTQHNLFAMSLFGDRIFYSTWKMKTIWIANKHTGKDMVRINLHSSFVPLGELKVVHPLAQPKAEDDTWEPEQKLCKLRKGNCSSTVCGQDLQSHLCMCAEGYALSRDRKYCEDVNECAFWNHGCTLGCKNTPGSYYCTCPVGFVLLPDGKRCHQLVSCPRNVSECSHDCVLTSEGPLCFCPEGSVLERDGKTCSGCSSPDNGGCSQLCVPLSPVSWECDCFPGYDLQLDEKSCAASGPQPFLLFANSQDIRHMHFDGTDYGTLLSQQMGMVYALDHDPVENKIYFAHTALKWIERANMDGSQRERLIEEGVDVPEGLAVDWIGRRFYWTDRGKSLIGRSDLNGKRSKIITKENISQPRGIAVHPMAKRLFWTDTGINPRIESSSLQGLGRLVIASSDLIWPSGITIDFLTDKLYWCDAKQSVIEMANLDGSKRRRLTQNDVGHPFAVAVFEDYVWFSDWAMPSVMRVNKRTGKDRVRLQGSMLKPSSLVVVHPLAKPGADPCLYQNGGCEHICKKRLGTAWCSCREGFMKASDGKTCLALDGHQLLAGGEVDLKNQVTPLDILSKTRVSEDNITESQHMLVAEIMVSDQDDCAPVGCSMYARCISEGEDATCQCLKGFAGDGKLCSDIDECEMGVPVCPPASSKCINTEGGYVCRCSEGYQGDGIHCLDIDECQLGEHSCGENASCTNTEGGYTCMCAGRLSEPGLICPDSTPPPHLREDDHHYSVRNSDSECPLSHDGYCLHDGVCMYIEALDKYACNCVVGYIGERCQYRDLKWWELRHAGHGQQQKVIVVAVCVVVLVMLLLLSLWGAHYYRTQKLLSKNPKNPYEESSRDVRSRRPADTEDGMSSCPQPWFVVIKEHQDLKNGGQPVAGEDGQAADGSMQPTSWRQEPQLCGMGTEQGCWIPVSSDKGSCPQVMERSFHMPSYGTQTLEGGVEKPHSLLSANPLWQQRALDPPHQMELTQ
modifications: Pro-epidermal growth factor
mean cumulative weight gain ([1]; at 9 days, 100 μg/kg body weight daily oral, n=10, controls 394±16 g): 422 ± 27 g
slope of the linear regression curve of weight gain ([1]; vs untreated controls, P 0.002, FIG. 1): significantly greater
stability in drinking water [2]: proven stable
brush border membrane proline transport ([3]; EGF 60 ng/ml luminal, one hour, n=5, control 2.6±0.3): 3.8±0.5 nmol/min/mg protein
brush border membrane glucose transport ([3]; EGF 60 ng/ml luminal, one hour, n=5, control 11.5±0.9): 16.1±1.0 nmol/min/mg protein
glucose absorption in intact tissue ([3]; luminal EGF, initial experiments): increased
translocation of S. typhimurium (Salmonella typhimurium): completely abolished
stool cultures for E. coli (RDEC-E. coli; I-EGF group): positive
animals with diarrhea (RDEC-E. coli; I-EGF group, 4 animals in infected group): none
effect on infection-induced reduced weight gain (RDEC-E. coli; I-EGF vs I): prevented
effect on jejunum maltase and sucrase activities (RDEC-E. coli; I-EGF vs I): prevented the decrease
reduction of E. coli colonization in the jejunum, ileum and proximal colon (RDEC-E. coli; compared to infected (I)): > 85%
E. Coli ILE (RDEC-E. coli; ileum mucosa, 7 days after inoculation): 4.88 ± 0.2 Log10 CFU/cm
% bacterial clearance in infected + EGF group, ILE (RDEC-E. coli; ileum, vs infected): 95%
Cumulative Weight Gain (RDEC-E. coli; infected rabbits, 60 μg oral EGF daily for 10 days, 7 days after inoculation): 316 ± 16 grams
E. Coli JEJ (RDEC-E. coli; [4]): 3.10 ± 0.4 Log10 CFU/cm
MALT (jejunum maltase activity) (RDEC-E. coli; [4]): 436 ± 48 u/g
SUC (jejunum sucrase activity) (RDEC-E. coli; [4]): 89 ± 19 u/g
% bacterial clearance in infected + EGF group, JEJ (RDEC-E. coli; jejunum, vs infected): 92%
E. Coli PROX (RDEC-E. coli; proximal colon mucosa, 7 days after inoculation): 4.09 ± 0.2 Log10 CFU/cm
% bacterial clearance in infected + EGF group, PROX (RDEC-E. coli; proximal colon, vs infected): 85%
microorganisms adhering to the epithelial surface (scanning electron microscopy) (E. coli; Transwell membrane studies, bacterium not specified): significantly higher numbers of microorganisms adhering to the epithelial surface of untreated monolayers
delay of initial E. coli translocation (E. coli; apical EGF 100 μM 15 min prior to infection): 1 h
inhibition of rate of E. coli invasion (transepithelial migration rate) (E. coli; apical EGF 100 μM, after the initial delay): > 95%
